# Measured values taken from ChEMBL document CHEMBL2074128, “Cytotoxicity of antiviral nucleotides adefovir and cidofovir is induced by the expression of human renal organic anion transporter 1” (J Am Soc Nephrol, 2000).
# B1: Solute carrier family 22 member 6 (Homo sapiens) (protein)
# chain: MAFNDLLQQVGGVGRFQQIQVTLVVLPLLLMASHNTLQNFTAAIPTHHCRPPADANLSKNGGLEVWLPRDRQGQPESCLRFTSPQWGLPFLNGTEANGTGATEPCTDGWIYDNSTFPSTIVTEWDLVCSHRALRQLAQSLYMVGVLLGAMVFGYLADRLGRRKVLILNYLQTAVSGTCAAFAPNFPIYCAFRLLSGMALAGISLNCMTLNVEWMPIHTRACVGTLIGYVYSLGQFLLAGVAYAVPHWRHLQLLVSAPFFAFFIYSWFFIESARWHSSSGRLDLTLRALQRVARINGKREEGAKLSMEVLRASLQKELTMGKGQASAMELLRCPTLRHLFLCLSMLWFATSFAYYGLVMDLQGFGVSIYLIQVIFGAVDLPAKLVGFLVINSLGRRPAQMAALLLAGICILLNGVIPQDQSIVRTSLAVLGKGCLAASFNCIFLYTGELYPTMIRQTGMGMGSTMARVGSIVSPLVSMTAELYPSMPLFIYGAVPVAASAVTVLLPETLGQPLPDTVQDLESRWAPTQKEAGIYPRKGKQTRQQQEHQKYMVPLQASAQEKNGL
# What was measured:
# [1] = substrate: Nc1ncnc2c1ncn2CCOCP(=O)(O)O; test: TP_TRANSPORTER: uptake in OAT1-expressing CHO cells; format: functional, cell-based
# [2] = substrate: Nc1ccn(C[C@@H](CO)OCP(=O)(O)O)c(=O)n1; test: cells, lysate or membranes named
protein,measurement,setting,value
B1,Km,[1],23.8 µM
same,Km,[2],58 µM
